For test [1], the target named is ΔLaminin G1_Celsr3 (mouse Celsr3-Flag lacking the laminin G1 domain) (mouse) (UniProt Q91ZI0). Kind of test: co-IP.
Test [2] addresses ΔEGF/Lam_Celsr3 (mouse Celsr3-Flag lacking all the EGF repeats and laminin domains) (mouse) (UniProt Q91ZI0). Kind of test: co-IP.

B1: mouse Frizzled3 (Frizzled3-HA) (receptor)
chain: HSLFSCEPITLRMCQDLPYNTTFMPNLLNHYDQQTAALAMEPFHPMVNLDCSRDFRPFLCALYAPICMEYGRVTLPCRRLCQRAYSECSKLMEMFGVPWPEDMECSRFPDCDEPYPRLVDLNLVGDPTEGAPVAVQRDYGFWCPRELKIDPDLGYSFLHVRDCSPPCPNMYFRREELSFARYFIGLISIICLSATLFTFLTFLIDVTRFRYPERPIIFYAVCYMMVSLIFFIGFLLEDRVACNASSPAQYKASTVTQGSHNKACTMLFMVLYFFTMAGSVWWVILTITWFLAAVPKWGSEAIEKKALLFHASAWGIPGTLTIILLAMNKIEGDNISGVCFVGLYDVDALRYFVLAPLCLYVVVGVSLLLAGIISLNRVRIEIPLEKENQDKLVKFMIRIGVFSILYLVPLLVVIGCYFYEQAYRGIWETTWIQERCREYHIPCPYQVTQMSRPDLILFLMKYLMALIVGIPSIFWVGSKKTCFEWASFFHGRRKKEIVNESRQVLQEPDFAQSLLRDPNTPIIRKSRGTSTQGTSTHASSTQLAMVDDQRSKAGSVHSKVSSYHGSLHRSRDGRYTPCSYRGMEERLPHGSMSRLTDHSRHSSSHRLNEQSRHSSIRDLSNNPMTHITHGTSMNRVIEEDGTSA
For B1, the results for the percent reduction of the interaction against wild-type Celsr3 in test [1] and in test [2] were 66% and 68%, respectively.

The values are drawn from paper PMC8373119.
